Test: soluble on expression in E. coli; label from the status in PepcDB or PDB records

Sequence | soluble on expression in E. coli
MSLEIADLKVHFDIKEGKQWFWQPPKTLKAVDGVTLRLYEGETLGVVGESGCGKSTFARAIIGLVKATDGKVAWLGKDLLGMKADEWREVRSDIQMIFQDPLASLNPRMTIGEIIAEPLRTYHPKLSRQDVRDRVKAMMLKVGLLPNLINRYPHEFSGGQCQRIGIARALILEPKLIICDEPVSALDVSIQAQVVNLLQQLQREMGLSLIFIAHDLAVVKHISDRVLVMYLGHAVELGTYDEVYHNPLHPYTKALMLAVPIPDPDLERNKKIQLLEGELPSPINPPSEGHHHHHH | soluble
MSLGMTHSFITEWDNTPKTKMRFSREVSFAELQRVTNCMAKHEIPSIEDFIWVLKEAAKVLSTLPNNVHVIPEPNDRLIFVGDLHGCFETLIRLFLGYPQQNIPRTGFPGEIVDGRRLVYFFNGDFVDRGGSGYQIVFLLAYMAIACPGSCYLNRGNHESEMFGLSTQGMLGNKFMSEMAGKFSGMDPETYRPAIGEFFCALPIAHTIDRNIFMVHGGVPLGDDLSNVPRAAPQSYFSTGSPAPIPKGLKPYKISNLDNLTPSRQKTTNFEDNPRKQNELWHSFVWNYDRLPYSADFMEENNFKTMVHSHTATPFHQITSFLPLEKTSGEKYSIQSVIKNQEMFDRMKAFFASHQLANSSKLSILEIFSSPTEGHHHHHH | not soluble
MQAEGEKSDKISKISTGIPRVDELLYGGFDGRDNIVVSGNNFSQKRSFIYNFIKSSANSGMKVIIINVDGSSESLLADLARRGTDLENIILLDGFSKNFQEKVPPNAEVIDDPSNVSSVLKQYMLRAQKEKDFIFVFLSATPYLMDFNDQNRKFFVQLVHWNRKNSLLSTYVLDDFVGQTTAEWFAYMMDFSLYFKNDGDYDYMRVLSLKPVRTKDWIRIYKDSDVFTLGSFNVERIR | not soluble
MQELQLKVTQAQVEIIDREKFEQNINEVVAKYQNYAVTAGTIKDDKQVLADLRKLKKQLSDERIKVKKELSKPADDIDGYIKQASKPLDDTIDKIATDVKEFEDHQKALRLDTVKSYLSNKASEYMLDPRIFDEKAMEYTKAGNFMADGVTLKKVTMKSLEDLVTFEYQKEQEVEKAKATISGQCAEYGMTDQPYIRMLKEMTLVEVLGQIKADYLAEKQK | not soluble
MGSDKIHHHHHHMTIRINADFSQRIVVQPGDYHWVESPMPGVQRMMLDRVGGETARATSIVRYEPFSEFSPHIHSGGEEFFVLEGVFSDEHQCYGKGSYVRNPIGSSHTPKIGKEGATIFVKLQQFDEKDTEQKVIDTQTQPWFQGLVGGLKVMPLHEFESEHVALVKWAPNTQFTAHQHWGGEEIFVLEGTFHDEHGRYPKGSWLRSPHLSRHSPFTKEEGALIYVKTGHL | not soluble
MYKINDFEIMAPVGSRESLAAAIQAGADSIYFGIENLNMRARSANTFTIEDLREIARTCDEHGMKSYLTVNTIIYDKDIELMRTIVDAAKEAGISAVIAADVAVMSYANKIGQEVHLSTQLNISNAEALKFYAQFADVVVLARELNLEQVAEIYRQIQEEHICGPSGELIRIEMFCHGALCMAVSGKCYLSLHEMNHSANRGACMQICRRAYTVRDKDTDVELEVDNQYIMSPKDLKTIHFMNKMIDAGVRVFKIEGRARGPEYVRTVVECYKQAIRAYLDDSFTDEKIAAWDERLKTVFNRGFWDGYYLGQRLGEWTKNYGSAATERKIYVGKGIKYFSNIGVAEFLVEAAEVSVGDKLLITGPTTGAVFATLDEARVDLKPVETVKKGEHFSMKLDKIRPSDKLYKLVSTEELKKFKGL | not soluble
MSEQKIEVVGKLGSTYGIRGWLRLYSSTEKAESIFDYQPWFLKIKGQWQLIELESWRYHSNDLIVKLKGTEDREAAQLLTNAEIGVDLSVFPKLGEEDYYWHDLINCQVVNLENYTMGVVTELMETGSNDVLVVRANSKDAFGKQERLIPFLYKQVVKRVDLSTKTITVDWDAGFLEHHHHHH | soluble
GSHMTNVTGDYTDCTPLLGDRAALDSFYEEHGYLFLRNVLDRDLVKTVAEQMREGLVALGAADPHATLEELTIDSFESVDEVAMHDYVKYDAFWNNPSTIKVFEQVFGEPVFVFLSTTIRYYPSQAGSEEPSFHYLTPFHQDGFYIGPNQDFRTFWIPLIRTTRESGGVALADGSHRRGKRDHVLNESFRRFGHPVRGIPPTEVSEDEHLLHSPMEPGDILLFHAHMCHKSIPNLSKDPRLMRMSMDTRVQPAKSHRGFNAMTPWTESAKDASKGIMAKITGTPTDVE | soluble
MSLKEPRWRDPELPEVLAMLRHPVDPVKANAAAYLQHLCFENEGVKRRVRQLRGLPLLVALLDHPRAEVRRRACGALRNLSYGRDTDNKAAIRDCGGVPALVRLLRAARDNEVRELVTGTLWNLSSYEPLKMVIIDHGLQTLTHEVIVPHSGWEREPNEDSKPRDAEWTTVFKNTSGCLRNVSSDGAEARRRLRECEGLVDALLHALQSAVGRKDTDNKSVENCVCIMRNLSYHVHKEVPGADRYQEAEPGPLGSAVGSQRRRRDDASCFGGKKAKEEWFHQGKKDGEMDRNFDTLDLPKRTEAAKGFELLYQPEVVRLYLSLLTESRNFNTLEAAAGALQNLSAGNWMWATYIRATVRKERGLPVLVELLQSETDKVVRAVAIALRNLSLDRRNKDLIGSYAMAELVRNVRNAQAPPRPGACLEEDTVVAVLNTIHEIVSDSLDNARSLLQARGVPALVALVASSQSVREAKAASHVLQTVWSYKELRGTLQKDGWTKARFQSAAATAKGPKEGHHHHHH | not soluble
MYVLIGGAGLIGQQLARQVLDQGHTVAVIDQDPQVCKMVRDRLGAMAFEGSAVNTDILLEAGICRADAVAAVLRQDALNLALVTLACHYGVSRIISRISQQDFIEPMRLAGAHHIISTVDLVVSTMVNAIECPQVESMLHFEQGQIEVFKLTLDSQSPVIGRSVAAIAQDRNFPSSSLIIGYQSHPQADLVIPSGNTVLEANATVLLATKPGLVQSLVNFLMPSLFSPLEHHHHHH | not soluble
MTTEAPIWPAELFEDLDRNGPIPLYFQVAQRLEDGIRSGVLPPGARLENEISVAKHLNVSRPTVRRAIQEVVDKGLLVRRRGVGTQVVQSHVTRPVELTSFFNDLKNANLDPKTRVLEHRLLAASSAIAEKLGVSAGDEVLLIRRLRSTGDIPVAILENYLPPAFNDVSLDELEKGGLYDALRSRGVVLKIANQKIGARRAVGEESTLLDIEDGGPLLTVERVALDNSGQVIELGSHCYRPDMYNFETTLVAR | soluble
SLRKLRFTRSPYTSARLGQPVDASLLLCNGGRRRFRGQVRDAWPPSARAQPHTHDVDVAAGQRQQVHTALRPVRRGDQRAAMVTARSIGPLGLAGRQSSQSVPGLVRVLPPFLSRKHLPSRLAKLREIDGLLPTLIRGQGTEFDSLREYVVGDDVRSIDWRASARRADVMVRTWRPERDRRVVIVLDTGRMAAGRVGVDPTAADPAGWPRLDWSMDAALLLAALASRAGDHVDFLAHDRISRAGVFGASRSELLAQLVDAMAPLRPALIESDWHAMIATILRRTRRRSLVVLLTDLNATALDEGLLPVLPQLSARHHVLVAAVADPRVDQLAAGRSDAAAVYDAAAAERARNDRRAIASQLRRGGVDVIDAPPAEIAPGLADRYLAMKATGRL | not soluble
MGRGIAQIIRHDEPTDEIVDKFYRQINNPVLANINLQWEGDGDSPIIYPCNPPDLFAEQPLVLFGKKPDARGGKLHITGIVAGGTHYQHTFDLNFEETGNPAIAQLWGRYRIKELMNLMVSGETKLGVEAVTDTALTYQMLSQYTAFVAVSDDVRVDSLQETVSVQVPVEMAEGISYLGIFGSAVSAAAPIMANMVLEHHHHHH | not soluble
MRGSHHHHHHGSACMFSNKTRQDSIQKMQQEELDLLIIGGGITGAGVAVQAAASGIKTGLIEMQDFAEGTSSRSTKLVHGGIRYLKTFDVEVVADTVGERAVVQGIAPHIPKPDPMLLPIYEDEGATTFNMFSVKVAMDLYDKLANVTGTKYENYTLTPEEVLEREPFLKKEGLKGAGVYLDFRNNDARLVIDNIKKAAEDGAYLVSKMKAVGFLYEGDQIVGVKARDLLTDEVIEIKAKLVINTSGPWVDKVRNLNFTRPVSPKMRPTKGIHLVVDAKKLPVPQPTYFDTGKQDGRMVFAIPRENKTYFGTTDTDYQGDFTDPKVTQEDVDYLLDVINHRYPEANITLADIEASWAGLRPLLIGNSGSPSTISRGSSLEREPDGLLTLSGGKITDYRKMAEGALRLIRQLLKEEYGIETKEIDSKKYQISGGNFDPTKLEETVTELAKEGVAAGLEEEDATYIADFYGTNARRIFELAKEMAPYPGLSLAESARLRYGLEEEMVLAPGDYLIRRTNHLLFERDQLDEIKQPVIDAIAEYFGWTEEEKAQQTKRLEALIAESDLRELKGEK | soluble
MGSDKIHHHHHHMDSYSDVKMGEYEPTWRSGMAKSITFIVTEDCQLRCGYCYIIGKNKFNRMSFTIARTAVDYILHNRALFWEDSVIWDFIGGEPLLEIELIDRICDYIKRRMYELDHPWFNSYRFSFSTNGLLYGTEKVQRFIRKNAHHLSISISIDGTRKKHDAQRVFPDGSGSYDAVVKNVPLWLKQFPNASTKATVAHDDLPLLKESVIHLWQLGLKNVTINLVNENIWEPGDDIIYETQLRELADYIVENDLYDTHNCSFFSKSIGKPLDCKTDNGNWCGSGKMLAIDGDGVFYPCVRFAPYSMRYKPARSIGNCFDGLDMNRVRPFLVLNRSMQSPEECIACDVASGCAWCQGNNYDLAATDTIYQRAVYTCAMHKARVRANRYFGEKLADRLGRERPVEAR | not soluble
GMSAPVTLINPFKVPADKLEAAIEYWEAHRDFMAQQPGYLSTQLHQSIDEGATYQLINVAIWQSEADFYQAAQKMRQALGHVQVEGLCGNPALYRVIRT | soluble
MGCVSSKSTTVLSPQTSFNEASRTSFRALPGPSQRQLEVYDQCLIGAARWPDDSSKSNTPENRAYCQSMYNSIRSAGDEISRGGITSFEELWGRATEWRLSKLQRGEPLYSAFASERTSDTDAVTPLVKPYKSVLARVVDHEDAHDEIMQDNLFGDLNVKVYRQTAYLHGNVIPLNTFRVATDTEYLRDRVAHLRTELGAKALKQHLQRYNPDRIDHTNASYLPIIKDHLNDLYRQAISSDLSQAELISLIARTHWWAASAMPDQRGSAAKAEFAARAIASAHGIELPPFRNGNVSDIEAMLSGEEEFVEKYRSLLDSDCFGTGHHHHHH | soluble
MNYNSKMEPLAIPEYGRNIQNMVNYCMTIGDRDERNRCAQTIITIMGNMFPERRENSETKHILWDHLAIMSGFKLDIDYPMEIISPELLERKPKAVSYSANDIVYRHYGHLIQEMILKACAMEQGEERYALELLIANQMKRSYLTWNKDTVDDYKIFKDLYELSEGRIELTEESCHLTIPNASDRKDNNNTKRNKVFRRK | not soluble
MRLRHKPYAMDRINEYSHIVIGNPEERAGSWKEVFGNEQPIHIEVGTGRGRFMYDMAKANPHINYIGIEKFTSVVVDALDKLIEEELPNLKLINKDAEDLTVFFAKGEIDRVYLNFSDPWPKKRHTKRRLTYKTFLRNYEEVLVEGGEIHFKTDNQGLFEYSLMSMAEYGMLLTYLSLDLHNSDFEGNIMTEYEEKFSSKGHRIYRVEAKYRTEPMQ | not soluble
MGSDKIHHHHHHACILFVCFLYTNNEIGVTSSKLEADIRSSQKIKDDWTVDGSVSSTMAAYISYPQDLSDHSFSVYVNRPGLSFGYFFRGGGTLSGIQRGIVEFTVEGYNERAFISMNQQQVQQLEIDDGNTIQVVDIDRNKPFAIVLPINAGNITFYDVNRNTVEYWNNPL | not soluble
